From patent publication US20240002844

Target: T1, recombinant SHN3 (rSHN3, 50-930 aa) (UniProt A2A884)
T1 sequence: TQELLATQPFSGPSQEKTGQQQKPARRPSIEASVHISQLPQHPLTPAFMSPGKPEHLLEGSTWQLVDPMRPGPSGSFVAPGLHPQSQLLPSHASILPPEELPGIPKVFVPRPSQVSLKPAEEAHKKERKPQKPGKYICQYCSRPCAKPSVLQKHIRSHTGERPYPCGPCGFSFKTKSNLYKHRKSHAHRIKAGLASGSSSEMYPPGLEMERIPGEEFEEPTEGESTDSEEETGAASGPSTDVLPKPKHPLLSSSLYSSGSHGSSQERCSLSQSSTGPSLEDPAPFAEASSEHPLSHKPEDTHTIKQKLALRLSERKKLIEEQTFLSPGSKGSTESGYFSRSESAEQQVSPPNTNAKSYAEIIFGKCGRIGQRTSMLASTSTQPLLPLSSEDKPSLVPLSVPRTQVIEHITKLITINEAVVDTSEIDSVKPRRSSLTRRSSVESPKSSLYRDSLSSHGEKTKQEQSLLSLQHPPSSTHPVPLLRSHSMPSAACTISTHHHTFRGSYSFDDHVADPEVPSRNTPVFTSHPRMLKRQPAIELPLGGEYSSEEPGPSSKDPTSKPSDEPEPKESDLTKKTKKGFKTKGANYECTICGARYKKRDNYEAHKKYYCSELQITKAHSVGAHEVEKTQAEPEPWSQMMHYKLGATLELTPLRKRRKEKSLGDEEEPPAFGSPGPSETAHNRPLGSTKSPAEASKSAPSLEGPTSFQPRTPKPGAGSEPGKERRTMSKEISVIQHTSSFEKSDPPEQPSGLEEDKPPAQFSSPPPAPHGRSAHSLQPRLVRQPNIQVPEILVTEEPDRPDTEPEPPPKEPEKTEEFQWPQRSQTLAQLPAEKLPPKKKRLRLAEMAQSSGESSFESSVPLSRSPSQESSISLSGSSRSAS

Sequence of recombinant ERK2 (rERK2) (P28482 2-360): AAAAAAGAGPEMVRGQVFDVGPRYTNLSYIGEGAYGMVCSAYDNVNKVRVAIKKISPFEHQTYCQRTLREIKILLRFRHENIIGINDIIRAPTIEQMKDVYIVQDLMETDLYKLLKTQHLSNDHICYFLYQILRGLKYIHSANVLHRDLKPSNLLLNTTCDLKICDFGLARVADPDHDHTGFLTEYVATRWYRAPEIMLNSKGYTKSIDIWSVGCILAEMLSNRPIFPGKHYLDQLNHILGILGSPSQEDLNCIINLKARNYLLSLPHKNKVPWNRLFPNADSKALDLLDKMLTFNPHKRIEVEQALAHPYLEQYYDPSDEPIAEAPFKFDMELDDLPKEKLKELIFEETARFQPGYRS

Substance: recombinant ERK2 (rERK2)
- in vitro kinase assay: rERK2-induced phosphorylation of rSHN3 (FIG. 9C): recombinant SHN3 (rSHN3) was phosphorylated by recombinant ERK2 (rERK2)
- in vitro kinase assay: rERK2-induced phosphorylation of the ERK substrate ELK1 (FIG. 9C): rSHN3 inhibited rERK2-induced phosphorylation of the ERK substrate ELK1
- phospho-spectrometry analysis of rERK and rSHN3 (FIG. 9D): rERK phosphorylates rSHN3 at two serines (810 and 811 aa), one threonine (851 aa), and two serines (911 and 913 aa)
